Experimental data as given in the supplement of paper PMC7877785.
± gives the uncertainty stated by the source.

Assay: self-splicing fitness, log relative to wild type (ln ratio); higher = more splicing; Tetrahymena group I intron in knt gene, E. coli kanamycin selection, DiMSum; sequences stand for … in CUCUCU…GGAGGGAAAAGUUAUCAGGCAUGCACCUGGUAGCUAGUCUUUAAACCAAUAGAUUGCAUCGGUUUAAAAGGCAAGACCGUCAAAUUGCGGGAAAGGGGUCAACAGCCGUUCAGUACCAAGUCUCAGGGGAAACUUUGAGAUGGCCUUGCAAAGGGUAUGGUAAUAAGCUGACGGACAUGGUCCUAACCACGCAGCCAAGUCCUAAGUCAACAGAUCUUCUGUUGAUAUGGAUGCAGUUCACAGACUAAAUGUCGGUCGGGGAAGAUGUAUUCUUCUCAUAAGAUAUAGUCGGACCUCUCCUUAAUGGGAGCUAGCGGAUGAAGUGAUGCAACACUGGAGCCGCUGGGAACUAAUUUGUAUGCGAAAGUAUAUUGAUUAGUUUUGGAGUACUCGUGGUCG
How it was run: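 DiMSum derived fitness as the error-weighted combination of fold changes across replicates, kanamycin versus no kanamycin, normalised to wild type. E. coli BL21(DE3) held the library, which randomised all eight P1ex-region intron nucleotides within the knt kanamycin-resistance gene on pET-22b(+). Six replicate transformations grew overnight at 37°C or 30°C on LB agar with or without 25 μg/mL kanamycin, also containing 100 μg/mL carbenicillin, 50 μM IPTG and 0.2% rhamnose, and pooled colonies were amplicon-sequenced on an Illumina HiSeq 2500.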

Sequence | self-splicing fitness (ln) (30 °C) | self-splicing fitness (ln) (37 °C)
CAGAAGCAAUAUUACGUUUG | -3.42 ± 0.19 | -2.54 ± 0.2
CUCCAGCAAUAUUACGGACC | -3.65 ± 0.32 | -2.64 ± 0.44
UUAAAGCAAUAUUACGGAAG | -1.67 ± 0.087 | -0.452 ± 0.11
AGUAAGCAAUAUUACGGGCG | -0.68 ± 0.08 | 0.152 ± 0.12
CUGGAGCAAUAUUACGUAGU |  | -3.43 ± 0.46
UGCUAGCAAUAUUACGUACC |  | 0.784 ± 0.4
ACCGAGCAAUAUUACGUAAA | -4.22 ± 0.29 | -1.66 ± 0.19
UACGAGCAAUAUUACGACGU | -2.08 ± 0.23 | -2.12 ± 0.27
GUACAGCAAUAUUACGCUCA | -1.07 ± 0.091 | -0.188 ± 0.11
UUGCAGCAAUAUUACGACCC |  | -0.535 ± 0.4
GGAAAGCAAUAUUACGAGUU | -1.86 ± 0.1 | -1.08 ± 0.12
CAAGAGCAAUAUUACGGAUA | -2.87 ± 0.23 | -2.32 ± 0.29
ACUAAGCAAUAUUACGAAUA | -2.99 ± 0.23 | -2.55 ± 0.25
GCUUAGCAAUAUUACGUUGG | -1.59 ± 0.1 | -0.814 ± 0.14
UUACAGCAAUAUUACGAAUA | -2.6 ± 0.3 | -1.03 ± 0.2
GAGUAGCAAUAUUACGAGUU | -2.27 ± 0.095 | -0.98 ± 0.1
CCAUAGCAAUAUUACGUAGA | -3.86 ± 0.17 | -2.53 ± 0.16
UGCCAGCAAUAUUACGUCCC | -2.89 ± 0.31 | -1.71 ± 0.43
CUCCAGCAAUAUUACGUACC | -3.31 ± 0.29 | -1.19 ± 0.32

Sequence | self-splicing fitness (ln) (30 °C) | self-splicing fitness (ln) (37 °C)
UUCGAGCAAUAUUACGCAAG | -1.98 ± 0.4 | -1.66 ± 0.48
UGUUAGCAAUAUUACGCCGU | -1.98 ± 0.44 | -0.747 ± 0.42
GGCAAGCAAUAUUACGUAAU | 0.0253 ± 0.063 | 0.562 ± 0.074
CAAUAGCAAUAUUACGGGUC | -3.28 ± 0.34 | -2.4 ± 0.48
GCACAGCAAUAUUACGUAAG | -1.38 ± 0.06 | -0.717 ± 0.079
AAUGAGCAAUAUUACGCUCG | -2.31 ± 0.25 | -0.585 ± 0.18
CGGGAGCAAUAUUACGCAGA | -3.67 ± 0.48 | -2.01 ± 0.29
UGCAAGCAAUAUUACGUUAA | -2.27 ± 0.13 | -0.494 ± 0.1
AUGUAGCAAUAUUACGCGCG | -0.882 ± 0.093 | -0.464 ± 0.099
GGUGAGCAAUAUUACGAAAU | -2.21 ± 0.31 | -2.78 ± 0.38
AUGUAGCAAUAUUACGGGAG | -3.16 ± 0.29 | -2.64 ± 0.44
UAAGAGCAAUAUUACGAUAU | -3.22 ± 0.24 | -2.86 ± 0.28
UCACAGCAAUAUUACGGAGC | -2.68 ± 0.15 | -2.04 ± 0.22
UUAGAGCAAUAUUACGCCUG | -0.457 ± 0.11 | 0.235 ± 0.18
CGUCAGCAAUAUUACGCCCC | -0.652 ± 0.24 | -1.34 ± 0.3
UCGCAGCAAUAUUACGACUG | -1.93 ± 0.14 | -2.7 ± 0.25
AUAGAGCAAUAUUACGAAUU | -0.889 ± 0.15 | -0.429 ± 0.23
CUACAGCAAUAUUACGAUAU | -3.89 ± 0.22 | -1.4 ± 0.22
UCUGAGCAAUAUUACGGAAA | -3.08 ± 0.18 | -1.64 ± 0.15
